Legend:
human IL-21R (human) [1] = target: human IL-21R (human) (UniProt Q9HBE5); experiment: AlphaSeq yeast mating assay, pH 6 media
human IL-21R (human) [2] = target: human IL-21R (human) (UniProt Q9HBE5); experiment: AlphaSeq yeast mating assay, unbuffered media
human IL-21R (human) [3] = target: human IL-21R (human) (UniProt Q9HBE5); experiment: AlphaSeq yeast mating assay, pH 5 media
human IL-21R (human) [4] = target: human IL-21R (human) (UniProt Q9HBE5); experiment: AlphaSeq yeast mating assay, pH 7 media

Substance | Kd (human IL-21R (human) [1]) [µM] | Kd (human IL-21R (human) [2]) [µM] | Kd (human IL-21R (human) [3]) [µM] | Kd (human IL-21R (human) [4]) [µM]
IL-21_A75N (from UniProt Q9HBE4 32-152) (ligand) | 28 | 780 |  | 
IL-21_D33R (from UniProt Q9HBE4 32-152) (ligand) |  |  | 26 | 0.14
IL-21_D44G (from UniProt Q9HBE4 32-152) (ligand) | 0.05 |  |  | 0.2
IL-21_D47P (from UniProt Q9HBE4 32-152) (ligand) | 27 | 530 |  | 
IL-21_D47S (from UniProt Q9HBE4 32-152) (ligand) | 4.6 | 330 |  | 
IL-21_F79T (from UniProt Q9HBE4 32-152) (ligand) | 3.3 |  | 92 | 1.4
IL-21_I37N (from UniProt Q9HBE4 32-152) (ligand) |  |  | 33 | 0.33
IL-21_I37R (from UniProt Q9HBE4 32-152) (ligand) | 0.17 |  |  | 0.2
IL-21_I43S (from UniProt Q9HBE4 32-152) (ligand) | 1.1 |  | 43 | 
IL-21_I45P (from UniProt Q9HBE4 32-152) (ligand) |  |  | 100 | 
IL-21_I45Y (from UniProt Q9HBE4 32-152) (ligand) | 12 |  |  | 
IL-21_I96A (from UniProt Q9HBE4 32-152) (ligand) | 11 | 160 |  | 
IL-21_I96G (from UniProt Q9HBE4 32-152) (ligand) | 52 |  |  | 
IL-21_I96T (from UniProt Q9HBE4 32-152) (ligand) | 66 |  |  | 
IL-21_I148S (from UniProt Q9HBE4 32-152) (ligand) |  | 170 |  | 
IL-21_K104G (from UniProt Q9HBE4 32-152) (ligand) | 0.079 |  |  | 
IL-21_L42D (from UniProt Q9HBE4 32-152) (ligand) | 14 |  | 1600 | 
IL-21_L42S (from UniProt Q9HBE4 32-152) (ligand) |  |  |  | 11
IL-21_L42Y (from UniProt Q9HBE4 32-152) (ligand) | 0.011 |  | 0.043 | 0.021
IL-21_L49S (from UniProt Q9HBE4 32-152) (ligand) |  |  | 240 | 
IL-21_L56E (from UniProt Q9HBE4 32-152) (ligand) | 30 | 110 |  | 

Substance | Kd (human IL-21R (human) [1]) [µM] | Kd (human IL-21R (human) [2]) [µM] | Kd (human IL-21R (human) [3]) [µM] | Kd (human IL-21R (human) [4]) [µM]
IL-21_L56N (from UniProt Q9HBE4 32-152) (ligand) |  |  | 72 | 9.7
IL-21_L56S (from UniProt Q9HBE4 32-152) (ligand) | 46 |  |  | 44
IL-21_L120V (from UniProt Q9HBE4 32-152) (ligand) | 0.21 |  | 1.2 | 0.21
IL-21_M39P (from UniProt Q9HBE4 32-152) (ligand) |  | 260 |  | 
IL-21_M39Q (from UniProt Q9HBE4 32-152) (ligand) | 83 |  |  | 
IL-21_P108G (from UniProt Q9HBE4 32-152) (ligand) |  |  | 11 | 
IL-21_Q41K (from UniProt Q9HBE4 32-152) (ligand) |  |  | 150 | 7.2
IL-21_Q41P (from UniProt Q9HBE4 32-152) (ligand) | 35 |  |  | 
IL-21_Q48K (from UniProt Q9HBE4 32-152) (ligand) | 0.2 |  | 11 | 
IL-21_Q80A (from UniProt Q9HBE4 32-152) (ligand) | 12 |  |  | 
IL-21_R34F (from UniProt Q9HBE4 32-152) (ligand) | 0.052 |  | 0.39 | 0.11
IL-21_R34N (from UniProt Q9HBE4 32-152) (ligand) | 0.052 |  | 0.96 | 
IL-21_R105K (from UniProt Q9HBE4 32-152) (ligand) |  | 250 |  | 
IL-21_V46N (from UniProt Q9HBE4 32-152) (ligand) | 37 |  |  | 
IL-21_V53Q (from UniProt Q9HBE4 32-152) (ligand) | 0.16 |  |  | 0.2
IL-21_V57H (from UniProt Q9HBE4 32-152) (ligand) | 0.024 |  | 1.6 | 
IL-21_V57P (from UniProt Q9HBE4 32-152) (ligand) |  |  |  | 3
IL-21_V57Y (from UniProt Q9HBE4 32-152) (ligand) | 0.016 |  | 0.046 | 
IL-21_V98R (from UniProt Q9HBE4 32-152) (ligand) |  |  | 0.046 | 
IL-21_W73N (from UniProt Q9HBE4 32-152) (ligand) | 3.4 |  | 65 | 
IL-21_W73V (from UniProt Q9HBE4 32-152) (ligand) | 6.5 |  | 110 | 

Other lines, results leading:

Kd (human IL-21R (human) [1]) [µM] | Kd (human IL-21R (human) [2]) [µM] | Kd (human IL-21R (human) [3]) [µM] | Kd (human IL-21R (human) [4]) [µM] | Substance
 |  | 40 |  | IL-21_D33P (from UniProt Q9HBE4 32-152) (ligand)
7.3 | 590 |  |  | IL-21_D44P (from UniProt Q9HBE4 32-152) (ligand)
0.044 |  | 0.35 | 0.16 | IL-21_D44T (from UniProt Q9HBE4 32-152) (ligand)
 |  | 0.055 | 0.026 | IL-21_D66M (from UniProt Q9HBE4 32-152) (ligand)
1.5 |  | 41 | 0.34 | IL-21_E59R (from UniProt Q9HBE4 32-152) (ligand)
 |  | 0.047 | 0.16 | IL-21_E72L (from UniProt Q9HBE4 32-152) (ligand)
55 |  |  |  | IL-21_F76D (from UniProt Q9HBE4 32-152) (ligand)
14 |  | 79 | 9.2 | IL-21_F76H (from UniProt Q9HBE4 32-152) (ligand)
41 |  | 250 |  | IL-21_F76P (from UniProt Q9HBE4 32-152) (ligand)
50 |  |  | 63 | IL-21_F76Q (from UniProt Q9HBE4 32-152) (ligand)
5.5 |  |  |  | IL-21_F79K (from UniProt Q9HBE4 32-152) (ligand)
7.8 |  |  | 3.3 | IL-21_F79P (from UniProt Q9HBE4 32-152) (ligand)
4.4 |  | 65 | 4.5 | IL-21_F79R (from UniProt Q9HBE4 32-152) (ligand)
 |  | 330 |  | IL-21_I43P (from UniProt Q9HBE4 32-152) (ligand)
0.19 |  | 20 |  | IL-21_I45D (from UniProt Q9HBE4 32-152) (ligand)
6.2 |  |  |  | IL-21_I45H (from UniProt Q9HBE4 32-152) (ligand)
 |  |  | 1 | IL-21_I45N (from UniProt Q9HBE4 32-152) (ligand)
0.11 |  | 15 | 0.16 | IL-21_I45S (from UniProt Q9HBE4 32-152) (ligand)
3.6 |  | 64 |  | IL-21_I95P (from UniProt Q9HBE4 32-152) (ligand)
78 |  |  |  | IL-21_I100E (from UniProt Q9HBE4 32-152) (ligand)
 |  | 7.3 |  | IL-21_K106S (from UniProt Q9HBE4 32-152) (ligand)
 |  |  | 26 | IL-21_L42E (from UniProt Q9HBE4 32-152) (ligand)
32 |  |  |  | IL-21_L42G (from UniProt Q9HBE4 32-152) (ligand)

Kd (human IL-21R (human) [1]) [µM] | Kd (human IL-21R (human) [2]) [µM] | Kd (human IL-21R (human) [3]) [µM] | Kd (human IL-21R (human) [4]) [µM] | Substance
26 |  |  | 0.95 | IL-21_L42N (from UniProt Q9HBE4 32-152) (ligand)
 |  | 150 |  | IL-21_L42R (from UniProt Q9HBE4 32-152) (ligand)
 |  | 160 |  | IL-21_L49H (from UniProt Q9HBE4 32-152) (ligand)
 |  | 170 |  | IL-21_L49N (from UniProt Q9HBE4 32-152) (ligand)
55 |  | 330 |  | IL-21_L49P (from UniProt Q9HBE4 32-152) (ligand)
 | 160 |  |  | IL-21_L49R (from UniProt Q9HBE4 32-152) (ligand)
 |  | 0.12 | 0.024 | IL-21_L61H (from UniProt Q9HBE4 32-152) (ligand)
0.036 |  | 0.052 | 0.056 | IL-21_L120M (from UniProt Q9HBE4 32-152) (ligand)
 | 890 |  |  | IL-21_M39K (from UniProt Q9HBE4 32-152) (ligand)
 |  | 0.11 | 0.044 | IL-21_N51G (from UniProt Q9HBE4 32-152) (ligand)
 |  | 0.033 | 0.094 | IL-21_N70A (from UniProt Q9HBE4 32-152) (ligand)
 |  |  | 0.11 | IL-21_P108Q (from UniProt Q9HBE4 32-152) (ligand)
 |  | 57 | 1.1 | IL-21_P108T (from UniProt Q9HBE4 32-152) (ligand)
0.024 |  |  | 0.12 | IL-21_P132A (from UniProt Q9HBE4 32-152) (ligand)
 |  | 0.043 | 0.12 | IL-21_Q150S (from UniProt Q9HBE4 32-152) (ligand)
 |  | 0.36 |  | IL-21_R34A (from UniProt Q9HBE4 32-152) (ligand)
0.027 |  | 0.14 | 0.11 | IL-21_R34V (from UniProt Q9HBE4 32-152) (ligand)
 |  | 15 |  | IL-21_R38A (from UniProt Q9HBE4 32-152) (ligand)
1.2 |  |  | 2 | IL-21_R38M (from UniProt Q9HBE4 32-152) (ligand)
 |  | 170 |  | IL-21_R105D (from UniProt Q9HBE4 32-152) (ligand)
 |  | 0.057 | 0.025 | IL-21_V57M (from UniProt Q9HBE4 32-152) (ligand)
 |  | 0.17 | 0.078 | IL-21_V57T (from UniProt Q9HBE4 32-152) (ligand)
 |  | 39 | 0.34 | IL-21_W73S (from UniProt Q9HBE4 32-152) (ligand)

Source: US12281147
